T1: human HER4-Fc (human, UniProt Q15303 26-651)
T1 construct: Bought protein; also called HER4-Fc antigen; not shown: Fc part of the bought fusion protein, not described
T1 sequence: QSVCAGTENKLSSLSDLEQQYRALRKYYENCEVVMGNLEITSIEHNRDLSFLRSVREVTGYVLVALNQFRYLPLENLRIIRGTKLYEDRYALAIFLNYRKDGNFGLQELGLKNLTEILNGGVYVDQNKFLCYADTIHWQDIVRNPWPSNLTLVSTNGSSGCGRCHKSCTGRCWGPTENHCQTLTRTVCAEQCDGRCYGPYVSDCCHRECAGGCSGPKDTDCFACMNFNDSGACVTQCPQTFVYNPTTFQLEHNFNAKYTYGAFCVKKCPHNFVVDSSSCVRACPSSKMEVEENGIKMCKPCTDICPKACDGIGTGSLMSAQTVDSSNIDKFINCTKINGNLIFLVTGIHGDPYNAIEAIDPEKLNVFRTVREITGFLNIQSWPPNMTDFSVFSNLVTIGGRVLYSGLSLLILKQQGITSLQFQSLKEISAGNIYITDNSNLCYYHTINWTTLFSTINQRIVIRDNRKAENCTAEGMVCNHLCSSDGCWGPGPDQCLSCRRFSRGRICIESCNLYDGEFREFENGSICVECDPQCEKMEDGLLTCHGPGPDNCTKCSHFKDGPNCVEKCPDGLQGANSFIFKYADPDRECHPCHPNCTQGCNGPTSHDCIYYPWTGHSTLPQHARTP


Assays:
[1] = molecular target: T2, EGFR receptor (UniProt P00533 25-645, limits assumed); experiment: ELISA
T2 construct: also called Her1; ErbB1

[2] = molecular target: T3, HER3 receptor (UniProt P21860 20-643, limits assumed); experiment: ELISA
T3 construct: also called ErbB3

[3] = molecular target: T4, HER2 receptor (UniProt P04626 23-652, limits assumed); experiment: ELISA
T4 construct: also called Neu; ErbB2

[4] = molecular target: T1, human HER4-Fc; experiment: ELISA, human HER4-Fc coated, concentration giving 50% absorbance
Procedure: (§1) Ninety six-well enzyme immunoassay plates (Nunc Maxisorp) were coated overnight at 4° C. with HER4-Fc antigen at a concentration of 250 ng/ml in PBS pH 7.4. After four washes in PBS, containing 0.1% Tween 20 (PBS-T), plates were saturated with a 2% solution of bovine serum albumin (BSA) in PBS-T buffer for 2 h at 37° C. Two-fold or ten-fold serial dilutions of purified HER4-specific mAbs were added after four washes in PBS-T and plates were incubated at 37° C. for 2 h. Following four washes in PBS-T, 100 μl of a peroxidase-conjugated goat anti-human F(ab′)2 antibody (Jackson Immunoresearch) were added to each well. The conjugate was used at a 1:5000 dilution in PBS-T-2% BSA. The plates were incubated at 37° C. for 1 h and then washed three times in PBS-T and once in PBS. Finally a Tetramethylbenzidine solution (Sigma) was added for 30 min at ambient temperature in the dark. The reaction was stopped by adding 50 μl/well 1M […] and the absorbance was measured at 450 nm. […] HER4-specific antibodies D5 and C6, giving 50%-absorbance at concentration of 20 ng/ml and 100 ng/ml respectively, on human HER4-Fc, are more efficient for binding than F4 and H2, which gave a 50%-absorbance at concentration around 1-5 μg/ml (FIG. 1).

[5] = molecular target: T1, human HER4-Fc; experiment: ELISA, HER4-Fc coated at 250 ng/ml, IgG in solution
Procedure: as §1

T3 sequence (P21860 20-643 limits assumed): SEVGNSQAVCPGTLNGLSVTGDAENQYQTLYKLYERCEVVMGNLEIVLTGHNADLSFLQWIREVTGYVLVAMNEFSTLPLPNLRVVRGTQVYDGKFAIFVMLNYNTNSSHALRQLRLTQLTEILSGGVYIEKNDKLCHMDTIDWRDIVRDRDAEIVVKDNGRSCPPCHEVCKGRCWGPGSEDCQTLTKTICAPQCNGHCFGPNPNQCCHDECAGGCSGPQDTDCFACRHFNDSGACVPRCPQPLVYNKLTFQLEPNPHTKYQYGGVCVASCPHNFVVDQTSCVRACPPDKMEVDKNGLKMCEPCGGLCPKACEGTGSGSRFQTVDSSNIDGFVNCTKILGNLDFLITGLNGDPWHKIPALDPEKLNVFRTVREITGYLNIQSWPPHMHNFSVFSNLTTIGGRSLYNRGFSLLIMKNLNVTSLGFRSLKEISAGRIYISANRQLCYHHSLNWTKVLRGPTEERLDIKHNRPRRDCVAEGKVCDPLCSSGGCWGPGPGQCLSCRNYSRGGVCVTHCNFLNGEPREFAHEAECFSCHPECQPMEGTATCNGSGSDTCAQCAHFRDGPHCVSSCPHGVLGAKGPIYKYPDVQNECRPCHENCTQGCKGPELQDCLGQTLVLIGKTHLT

| Binder | binding result [1] | binding result [2] | binding result [3] | EC50 [4] | binding result [5] |
| --- | --- | --- | --- | --- | --- |
| C6 mAb (antibody, V domains shown, also called antibody C6; Ab C6) VH: EVQLVESGGSLVKPGGSLRLSCAASGFTFSNYYMNWVRQAPGKGLEWISSISGSSRYIDYADFVKGRFTISRDNATNSLYLQMNSLRAEDTAVYYCVRSSSDYFGGGMDVWGRGTLVTVSS VL: QSVLTQPASVSGSPGQSITISCAGTSSDVGGSYYVSWYQQHPGKAPKLMIYYDSYRPSGVSNRFSGSKSGNTASLTISGLQAEDEADYYCSSSTYNSTRVFGGGTKLAVLG | no binding | no binding | no binding | 0.1 µg/mL | – |
| D5 mAb (antibody, V domains shown, also called antibody D5; anti-HER4 antibody D5) VH: EVQLVESGGSLVKPGGSLRLSCAASGFTFSNYYMNWVRQAPGKGLEWISSIDGSSRYIDYADFVKGRFTISRDNATNSLYLQMNSLRAEDTAVYYCVRSSSDYFGGGMDVWGRGTLVTVSS VL: QSVLTQPASVSGSPGQSITISCAGTSSDVGGSSYVSWYQQHPGKAPKLMIYYDSYRPSGVSNRFSGSKSGNTASLTISGLQAEDEADYYCSSNTYYSTRVFGGGTKLAVLG | no binding | no binding | no binding | 0.02 µg/mL | – |

Results, then the binder that gave them:

| binding result [1] | binding result [2] | binding result [3] | EC50 [4] | binding result [5] | Binder |
| --- | --- | --- | --- | --- | --- |
| no binding | no binding | no binding | – | binds | F4 mAb (antibody, V domains shown, also called antibody F4) VH: EVQLVESGGSLVKPGGSLRLSCAASGFTFSNNDMNWVRQAPGKGLEWISSISGSSRYINYADFVKGRFTISRDNATNSLYLQMNSLRAEDTAVYYCVRSSDDYFGGGMDVWGRGTLVTVSS VL: QSVLTQPASVSGSPGQSITISCAGTSSDVGGYSGVSWYQQHPGKAPKLMIYNDSYRPSGVSNRFSGSKSGNTASLTISGLQAEDEADYYCSSYTNNSTRVFGGGTKLAVLG |
| no binding | no binding | no binding | – | binds | H2 mAb (antibody, V domains shown, also called antibody H2) VH: EVQLVESGGSLVKPGGSLRLSCAASGFTFSNNDMNWVRQAPGKGLEWISDINGSSRYIYYADFVKGRFTISRDNATNSLYLQMNSLRAEDTAVYYCVRSSDDYFGGGMDVWGRGTLVTVSS VL: QSVLTQPASVSGSPGQSITISCAGTSSDVGGYYSVSWYQQHPGKAPKLMIYNDSYRPSGVSNRFSGSKSGNTASLTISGLQAEDEADYYCSSSTYYSTRVFGGGTKLAVLG |

Reference: patent publication US20230040928A1 (INSERM INSTITUT NATIONAL DE LA SANTE ET DE LA RECHERCHE …, published 2023)
